Source: patent US20200332306

Tests used:
[1] = target: Sth7710 Type I-E Cascade plus Cas3 nickase (Streptococcus thermophilus DGCC7710) (UniProt F2XG53); experiment: cell_activity
[2] = system: Sth7710 Type I-E Cascade, Cas5, Cas6 and Cse1 each AtCBF1-linked (Streptococcus thermophilus DGCC7710); experiment: cell_activity; details: PAM AA 5'; value for R1 guides pooled (A2+, A4+, A1-); SE 18.9; no-guide control 0

Sequence | activity (% mutant reads) ([1]; paired nicking A4+/A3-, PAM not printed for A3-) | activity (% mutant reads) ([1]; paired nicking A4+/A1-, PAM AA 5') | activity (anthocyanin positive cells) [2] | activity (% mutant reads) ([1]; paired nicking A2+/A3-, A2+/A1- pair gave 0.02%, PAM AA 5')
GUGAUCCNNNNNNNNNNNNNNNNNNNNNNNNNNNNNNNNNGUUUUUCCCGCACACGCGGGGCACUACUGCUGUUCAUGUACAGUUUAAGCACUA / CACTACTGCTGTTCATGTACAGTTTAAGCACTA / TAGTGCTTAAACTGTACATGAACAGCAGTAGTG [R1 A3- guide RNA ; R1 A3- protospacer] | 0.03 | – | – | –
GUGAUCCNNNNNNNNNNNNNNNNNNNNNNNNNNNNNNNNNGUUUUUCCCGCACACGCGGGGCAGCAGUAGUGUUACAGAAGCUAAACUCAACCA / CAGCAGTAGTGTTACAGAAGCTAAACTCAACCA / TGGTTGAGTTTAGCTTCTGTAACACTACTGCTG [R1 A4+ guide RNA ; R1 A4+ protospacer] | – | 0.06 | 153 | –
GUGAUCCNNNNNNNNNNNNNNNNNNNNNNNNNNNNNNNNNGUUUUUCCCGCACACGCGGGGGAGGGUCUACUUCCAUCACCGUCUUGCUCGGUC / GAGGGTCTACTTCCATCACCGTCTTGCTCGGTC / GACCGAGCAAGACGGTGATGGAAGTAGACCCTC [R1 A2+ guide RNA ; R1 A2+ protospacer] | – | – | 153 | 0.06
GUGAUCCNNNNNNNNNNNNNNNNNNNNNNNNNNNNNNNNNGUUUUUCCCGCACACGCGGGGUUUAUGGACAGAGCUCCAAGUGACCGAGCAAGA / TTTATGGACAGAGCTCCAAGTGACCGAGCAAGA / TCTTGCTCGGTCACTTGGAGCTCTGTCCATAAA [R1 A1- guide RNA ; R1 A1- protospacer] | – | – | 153 | –
